Data published in patent US20190338048A1.
Read-outs that look alike come from different tables or passages of the source.

Experiments:
[1] = biological target: CAT-2200 Fab heavy chain L143D_K145T; assay: LCCA
[2] = biological target: CAT-2200 Fab heavy chain S186K; assay: LCCA
[3] = biological target: CAT-2200 Fab heavy chain L143A_Q179K; assay: LCCA
[4] = biological target: CAT-2200 Fab heavy chain L143A_Q179K; assay: LCCA; remark: listed apart in the source
[5] = biological target: CAT-2200 Fab heavy chain Q179K; assay: LCCA
[6] = biological target: CR8071 lambda light chain K129T_V133D (L1 of designs 3102 and 3109, system C); assay: SMCA LC-MS
[7] = biological target: CR8071 lambda light chain K129T_V133D (L1 of designs 3102 and 3109, system C); assay: SMCA LC-MS; remark: listed apart in the source
[8] = biological target: CR8071 lambda light chain K129T_V133D (L1 of designs 3102 and 3109, system C); assay: SMCA LC-MS; remark: listed apart in the source
[9] = biological target: CAT-2200 lambda light chain K129T_V133D_L135S; assay: LCCA, SPR tag read-out
[10] = biological target: Pertuzumab kappa light chain S131K_L135K; assay: LCCA, SPR tag read-out
[11] = biological target: Pertuzumab kappa light chain S121K_S131K_L135K; assay: LCCA, SPR tag read-out
[12] = biological target: Pertuzumab kappa light chain V133G_S176D (L2), N-terminal HA tag; assay: LCCA, SPR of light chain tags
[13] = biological target: Pertuzumab kappa light chain V133G_S176D_T178D (L2), N-terminal HA tag; assay: LCCA, SPR of light chain tags
[14] = biological target: CAT-2200 lambda light chain S176K_Y178K (L1), N-terminal FLAG tag; assay: LCCA, SPR of light chain tags
[15] = biological target: CAT-2200 lambda light chain S176K_Y178L (L1), N-terminal FLAG tag; assay: LCCA, SPR of light chain tags
[16] = biological target: CAT-2200 lambda light chain S176K_Y178R (L1), N-terminal FLAG tag; assay: LCCA, SPR of light chain tags
[17] = biological target: Pertuzumab kappa light chain V133G_S176D (L2), N-terminal HA tag; assay: LCCA, SPR of light chain tags; remark: listed apart in the source
[18] = biological target: Pertuzumab kappa light chain V133G_S176D (L2), N-terminal HA tag; assay: LCCA, SPR of light chain tags; remark: listed apart in the source
[19] = biological target: CAT-2200 lambda light chain S176K_Y178R (L1), N-terminal FLAG tag; assay: LCCA, SPR of light chain tags; remark: listed apart in the source
[20] = biological target: Pertuzumab kappa light chain Q124E_V133D (L2), N-terminal HA tag; assay: LCCA, SPR of light chain tags
[21] = biological target: Pertuzumab kappa light chain V133D (L2), N-terminal HA tag; assay: LCCA, SPR of light chain tags
[22] = biological target: Pertuzumab kappa light chain Q124E_V133D (L2), N-terminal HA tag; assay: LCCA, SPR of light chain tags; remark: listed apart in the source
[23] = biological target: Pertuzumab kappa light chain V133D (L2), N-terminal HA tag; assay: LCCA, SPR of light chain tags; remark: listed apart in the source
[24] = biological target: Pertuzumab kappa light chain Q124E_V133D (L2), N-terminal HA tag; assay: LCCA, SPR of light chain tags; remark: listed apart in the source
[25] = biological target: CAT-2200 lambda light chain S176K_Y178R (L1), N-terminal FLAG tag; assay: LCCA, SPR of light chain tags; remark: listed apart in the source
[26] = biological target: Pertuzumab kappa light chain S131D_V133G_T178F (L2), N-terminal HA tag; assay: LCCA, SPR of light chain tags
[27] = biological target: Pertuzumab kappa light chain S131E_V133G_T178F (L2), N-terminal HA tag; assay: LCCA, SPR of light chain tags
[28] = biological target: Pertuzumab kappa light chain S176D_T178E (L2), N-terminal HA tag; assay: LCCA, SPR of light chain tags
[29] = biological target: Pertuzumab kappa light chain S176E_T178E (L2), N-terminal HA tag; assay: LCCA, SPR of light chain tags
[30] = biological target: CAT-2200 lambda light chain Y178K (L1), N-terminal FLAG tag; assay: LCCA, SPR of light chain tags
[31] = biological target: Pertuzumab kappa light chain S176D_T178E (L2), N-terminal HA tag; assay: LCCA, SPR of light chain tags; remark: listed apart in the source
[32] = biological target: Pertuzumab kappa light chain S176E_T178E (L2), N-terminal HA tag; assay: LCCA, SPR of light chain tags; remark: listed apart in the source
[33] = biological target: Pertuzumab kappa light chain S131D_V133G_T178F (L2), N-terminal HA tag; assay: LCCA, SPR of light chain tags; remark: listed apart in the source
[34] = biological target: Pertuzumab kappa light chain S131E_V133G_T178F (L2), N-terminal HA tag; assay: LCCA, SPR of light chain tags; remark: listed apart in the source
[35] = biological target: Pertuzumab kappa light chain S176D_T178E (L2), N-terminal HA tag; assay: LCCA, SPR of light chain tags; remark: listed apart in the source
[36] = biological target: Pertuzumab kappa light chain S176E_T178E (L2), N-terminal HA tag; assay: LCCA, SPR of light chain tags; remark: listed apart in the source
[37] = biological target: Pertuzumab kappa light chain S131D_V133G_T178F (L2), N-terminal HA tag; assay: LCCA, SPR of light chain tags; remark: listed apart in the source
[38] = biological target: Pertuzumab kappa light chain S131E_V133G_T178F (L2), N-terminal HA tag; assay: LCCA, SPR of light chain tags; remark: listed apart in the source
[39] = biological target: Pertuzumab kappa light chain S176D_T178E (L2), N-terminal HA tag; assay: LCCA, SPR of light chain tags; remark: listed apart in the source
[40] = biological target: Pertuzumab kappa light chain S176E_T178E (L2), N-terminal HA tag; assay: LCCA, SPR of light chain tags; remark: listed apart in the source
[41] = biological target: CAT-2200 lambda light chain S176K_Y178L (L1), N-terminal FLAG tag; assay: LCCA, SPR of light chain tags; remark: listed apart in the source
[42] = biological target: CAT-2200 lambda light chain S176K_Y178R (L1), N-terminal FLAG tag; assay: LCCA, SPR of light chain tags; remark: listed apart in the source
[43] = biological target: CAT-2200 lambda light chain S176K_Y178K (L1), N-terminal FLAG tag; assay: LCCA, SPR of light chain tags; remark: listed apart in the source
[44] = biological target: CAT-2200 lambda light chain S176K_Y178L (L1), N-terminal FLAG tag; assay: LCCA, SPR of light chain tags; remark: listed apart in the source
[45] = biological target: CAT-2200 lambda light chain S176K_Y178R (L1), N-terminal FLAG tag; assay: LCCA, SPR of light chain tags; remark: listed apart in the source
[46] = biological target: Pertuzumab kappa light chain V133L_S176D_T178E (L2), N-terminal HA tag; assay: LCCA, SPR of light chain tags
[47] = biological target: Pertuzumab kappa light chain V133I_S176D_T178E (L2), N-terminal HA tag; assay: LCCA, SPR of light chain tags
[48] = biological target: Pertuzumab kappa light chain V133I_S176E_T178E (L2), N-terminal HA tag; assay: LCCA, SPR of light chain tags
[49] = biological target: Pertuzumab kappa light chain V133L_S176D_T178E (L2), N-terminal HA tag; assay: LCCA, SPR of light chain tags; remark: listed apart in the source
[50] = biological target: Pertuzumab kappa light chain V133I_S176E_T178E (L2), N-terminal HA tag; assay: LCCA, SPR of light chain tags; remark: listed apart in the source
[51] = biological target: CAT-2200 lambda light chain S176K_Y178K (L1), N-terminal FLAG tag; assay: LCCA, SPR of light chain tags; remark: listed apart in the source
[52] = biological target: Pertuzumab wild-type kappa light chain with N-terminal FLAG tag; assay: SMCA: H1, H2, L1, L2 co-expressed in CHO-3E7

Substance “CAT-2200 lambda light chain E124Q_T131K_V133S” has an H1L1:H1L2 median scalar value (ln(H1L1:H1L2)) [1] of 0.54.

For “CAT-2200 lambda light chain K129T_V133D_Y178T”, the H1L1:H1L2 median scalar value (ln(H1L1:H1L2)) [2] was 0.06.

Substance “CAT-2200 lambda light chain K129T_V133W_S180E” has an H1L1:H1L2 median scalar value (ln(H1L1:H1L2)) [3] of 1.51 and an H1L1:H1L2 median scalar value (ln(H1L1:H1L2)) [4] of 0.88.

Work on “CAT-2200 lambda light chain K129T_Y178E_S180E” yielded an H1L1:H1L2 median scalar value (ln(H1L1:H1L2)) [5] of 0.89.

Work on “CR8071 heavy chain L143K (H1 of designs 3102 and 3109, system C)” yielded a % H1L1 Pairing [6] of 88.7%, a Change in % H1L1 Pairing with respect to wild type [6] of 6.4% and a % H1L1 Pairing [7] of 84%. For the same substance, the Change in % H1L1 Pairing with respect to wild type [8] was 15.9%.

For “Pertuzumab Fab heavy chain L124E_A139I_K145T_V190I”, the H2L2:H2L1 normalized median ratio [9] was 39%, the H2L2:H2L1 median scalar value [10] was 0.48 ln(ratio) and the H2L2:H2L1 normalized median ratio [10] was 61%.

With “Pertuzumab Fab heavy chain L124E_A139I_K145T_V190I_K228D” the H2L2:H2L1 median scalar value [11] was 0.25 ln(ratio).

In the case of “Pertuzumab Fab heavy chain L124R (H2), ABD2-His6 tagged”, the H2L2:H2L1 normalized median ratio [12] is reported as 85%, the H2L2:H2L1 normalized median scalar value ln(r1/f1) [12] is reported as 1.75 and the H2L2:H2L1 normalized median ratio [13] is reported as 61%. The H2L2:H2L1 normalized median scalar value ln(r1/f1) [13] was 0.43, the H2L2:H2L1 normalized median ratio [14] was 16% and the H2L2:H2L1 normalized median ratio [15] was 26%. For the same substance, the H2L2:H2L1 normalized median ratio [16] was 15%, the H2L2:H2L1 normalized median ratio [17] was 84% and the H2L2:H2L1 normalized median scalar value ln(r1/f1) [17] was 1.63. For the same substance, the H2L2:H2L1 normalized median ratio [18] was 74%, the H2L2:H2L1 normalized median scalar value ln(r1/f1) [18] was 1.06 and the H2L2:H2L1 normalized median ratio [19] was 39%.

For “Pertuzumab Fab heavy chain L143K (H2), ABD2-His6 tagged”, the H2L2:H2L1 normalized median ratio [20] was 88%, the H2L2:H2L1 normalized median scalar value ln(r1/f1) [20] was 1.95 and the H2L2:H2L1 normalized median ratio [21] was 80%. The H2L2:H2L1 normalized median scalar value ln(r1/f1) [21] was 1.39, the H2L2:H2L1 normalized median ratio [14] was 14% and the H2L2:H2L1 normalized median ratio [16] was 12%. The H2L2:H2L1 normalized median ratio [22] was 86%, the H2L2:H2L1 normalized median scalar value ln(r1/f1) [22] was 1.78 and the H2L2:H2L1 normalized median ratio [23] was 77%. It also gave an H2L2:H2L1 normalized median scalar value ln(r1/f1) [23] of 1.2, an H2L2:H2L1 normalized median ratio [24] of 93% and an H2L2:H2L1 normalized median scalar value ln(r1/f1) [24] of 2.64. The H2L2:H2L1 normalized median ratio [25] was 20%.

Work on “Pertuzumab Fab heavy chain S188K (H2), ABD2-His6 tagged” yielded an H2L2:H2L1 normalized median ratio [26] of 89%, an H2L2:H2L1 normalized median scalar value ln(r1/f1) [26] of 2.09 and an H2L2:H2L1 normalized median scalar value ln(r1/f1) [27] of 2.35. For the same substance, the H2L2:H2L1 normalized median ratio [28] was 90%, the H2L2:H2L1 normalized median scalar value ln(r1/f1) [28] was 2.16 and the H2L2:H2L1 normalized median ratio [29] was 95%. It also gave an H2L2:H2L1 normalized median scalar value ln(r1/f1) [29] of 2.87, an H2L2:H2L1 normalized median ratio [14] of 14% and an H2L2:H2L1 normalized median ratio [15] of 14%. The H2L2:H2L1 normalized median ratio [16] was 9%, the H2L2:H2L1 normalized median ratio [30] was 20% and the H2L2:H2L1 normalized median ratio [31] was 80%. The H2L2:H2L1 normalized median scalar value ln(r1/f1) [31] was 1.41, the H2L2:H2L1 normalized median scalar value ln(r1/f1) [32] was 2.67 and the H2L2:H2L1 normalized median ratio [33] was 86%. It also gave an H2L2:H2L1 normalized median scalar value ln(r1/f1) [33] of 1.85, an H2L2:H2L1 normalized median scalar value ln(r1/f1) [34] of 2.77 and an H2L2:H2L1 normalized median ratio [35] of 86%. It also gave an H2L2:H2L1 normalized median scalar value ln(r1/f1) [35] of 1.83, an H2L2:H2L1 normalized median scalar value ln(r1/f1) [36] of 2.75 and an H2L2:H2L1 normalized median ratio [37] of 85%. The H2L2:H2L1 normalized median scalar value ln(r1/f1) [37] was 1.77, the H2L2:H2L1 normalized median scalar value ln(r1/f1) [38] was 2.17 and the H2L2:H2L1 normalized median ratio [39] was 86%. For the same substance, the H2L2:H2L1 normalized median scalar value ln(r1/f1) [39] was 1.78, the H2L2:H2L1 normalized median ratio [40] was 95% and the H2L2:H2L1 normalized median scalar value ln(r1/f1) [40] was 2.96. The H2L2:H2L1 normalized median ratio [41] was 5%, the H2L2:H2L1 normalized median ratio [42] was 5% and the H2L2:H2L1 normalized median ratio [43] was 14%. For the same substance, the H2L2:H2L1 normalized median ratio [44] was 15% and the H2L2:H2L1 normalized median ratio [45] was 11%.

“Pertuzumab Fab heavy chain V177I_S188K (H2), ABD2-His6 tagged” showed an H2L2:H2L1 normalized median ratio [14] of 9%, an H2L2:H2L1 normalized median scalar value ln(r1/f1) [46] of 0.55 and an H2L2:H2L1 normalized median ratio [47] of 91%. It also gave an H2L2:H2L1 normalized median scalar value ln(r1/f1) [47] of 2.34, an H2L2:H2L1 normalized median scalar value ln(r1/f1) [48] of 2.83 and an H2L2:H2L1 normalized median ratio [49] of 91%. The H2L2:H2L1 normalized median scalar value ln(r1/f1) [49] was 2.37, the H2L2:H2L1 normalized median scalar value ln(r1/f1) [50] was 2.79 and the H2L2:H2L1 normalized median ratio [51] was 9%.

With “Pertuzumab wild-type full-length IgG1 heavy chain (heterodimeric Fc) (from UniProt P0DOX5 2-448)” the % H2L2 Pairing (over all H2 species) [52] was 79.9%.
